# Results from article PMC7069968, “Cholesteryl α-D-glucoside 6-acyltransferase enhances the adhesion of Helicobacter pylori to gastric epithelium” (Communications Biology, 2020).
# Experiments:
# [1] = test system: CC(C)CCC[C@@H](C)[C@H]1CC[C@H]2[C@@H]3CC=C4C[C@@H](O[C@H]5O[C@H](CO)[C@@H](O)[C@H](O)[C@H]5O)CC[C@]4(C)[C@H]3CC[C@]12C; experiment: purified protein; conditions: Ca2+ acyl acceptor; sequential rapid-equilibrium random bi-bi mechanism
# [2] = test system: CCCCCCCCCCCCCC(=O)OC[C@H](COP(=O)(O)OCCN)OC(=O)CCCCCCCCCCCCC; experiment: purified protein; conditions: Ca2+ acyl donor; phospholipase A1-type, a1-position acyl chain transferred to CG
substance,measurement,setting,value
cholesteryl α-D-glucopyranoside 6′-acyltransferase (CGAT) (Helicobacter pylori 26695),Km,[1],26.0 µM
same,Km,[2],290 µM
